Reference: the nanobody polyreactivity screen of Harvey et al. (2022)

Test: yeast display, Sf9 membrane polyspecificity reagent, FACS + sequencing; frameworks hold sequencing errors
Outline: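 A synthetic nanobody library was expressed on Saccharomyces cerevisiae BJ5465 by galactose induction for 36–48 hours. The library was stained for 1 hour at 4 °C with 10% biotinylated, detergent-solubilized Sf9 membrane reagent and enriched with streptavidin microbeads before FACS. Low and high (top ~1%) gates were set on anti-HA fluorescence for expression and streptavidin fluorescence for reagent binding, and each polyreactivity label reflects the gate of origin.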

Sequence | polyreactivity (PSR sort gate)
QVQLVESGGGLVQAGGSLRISCAASGSTIQQYAMGRYRQAPGKEREFVAAISWRGGRTYYADSVKGRFTISRDNAKNTVYLQMNSLKPEDTAVYYCAVDPSIYRLSAYYYDYWGQGTQVTVSS | low polyreactivity
QDQLVESGGGLVQAGGCLRLSCAASGSIFYIYGRGWYRQEPGKERELVAAISRSGGRTYYADSVKGRFTISRDTANNTVYLQMNSLKPEDTAVYYCAARDHYSTGGMNYWGQGTQVTVSS | high polyreactivity
QVQLVESGGGLVQAGGSLRLSCAASGFTFRYYAMGGYRQAPGKERELVAAITASGGSTNYADSVKGRFTISRDNAKNTVYLQMNSLKPEDTAVYYCAADVRFSYYNRYRGYSAYDNWGQGTQVTVSS | high polyreactivity
QVQLVESGGGLVQAGGSLRLSCAASGRTFGFNAKGRYRQAPGTERELVAAISGSGGRPYYADSVKWRFTISRDNAKNTDYLQMNSLKPEDSAVYYCAAGARRGGSGYWGQGTQVTVSS | high polyreactivity
QVQLVESGGGLVQAGGSLRLSCAASGSTFYTYAMGWYRQAPGKERELVAAISSGGGTTYADSVKGRFTISRDNAKNTVYLQMNSLKPEDTAVYYCAAVTRDYRNDRRRQRYYYWGQGTQVTVSS | high polyreactivity
QVQLVESGGGLVQAGGSLRLSCAASGITFDWNAMGWYRQAPGKERELVAAISSGASTYYADSVKGRFTISRDNAKNTVYLQMNSLKPEDTAVYYCAKRHAINIHAVGPYYTSMDYWGQGTQVTVSS | low polyreactivity
QVQLVESGGGLVQAGGSLRLSCAASGRIFGVYAMGWYRQAPGKDRELVAAITSSGGRTYYADSVKGRFTISRDNAKNTVYLQMNSLKPEDTGVYYCAALGWSRRGKFNYWGQGTQVTVSS | high polyreactivity
QVQLQESGGGLAQAGGSLRLSCAASGNIFDADIMGWYRKAPGKERELVGSITDGGSTNYVDSVKGRFTISRDNAKNTVHLQMNSLKPEDTAVYYCAAIAYPEIPTYFDYDSDCFNWGHGTQVTVSS | high polyreactivity
QVQLVESGGGLVQAGGSLRLSCAASGSTFWYNAMGWYRQAPGKERELVAAISQSGGRTYYADSVKGRFTISRDNAKNTVYLQMNSLKPEDTAVYYCNAVSRDKSLYDYWGQGTQVTVSS | high polyreactivity
QVQLVESGGGLVQAGGSLRLSCAASGRIFLRYTMGWYRQAPGKERELVAAISARTTGTYYADSVKGRFTISRDNAKNTVYLQMNSLKPEDTAVYYCAAKSKLSRDLFSWGQGTQVTVSS | low polyreactivity
QVQLVESGGGLVQAGGSLRLTCAASGSTFLFYARGWYRQAPGKERELVAAIRGRGGSTYYADSVKGRFTISRDNAKNTVYLQMNSLKPEDTAVYYCAALSRFPVNRYSDLDLYYWGEGTQVTVSS | high polyreactivity
QVQLVESGGGLVQAGGSLRLSCAASGRTFARYVMGWYRQAPGKERELVAAINSGGNTYYADSVKGRFTISRDNAKNTVYLQMNSLKPEDTAVYYCAVKAARTYYWGQGTQVTVSS | high polyreactivity
QVHLVESGGGLVQAGGSLRLSCAASGSIFYYNAMGSYRHAPGKERELVAAINWSGDRTYYADSVKGRFTISRDNAKNTVYLQMNSLKPEYTAVYYCAATAWPGRYWRQEVDYWGQGTQVTVSS | high polyreactivity
QVQLVESGGGLVQAGGSLRLSCAASGSTFTPYAMGWYRQAPGKERELVAAISRRGGSTSYADSVKGRFTISRDNAKNTVYLQMNSLKPEDTAVYYCNKKTAASDYDYWGQGTQVTVSS | high polyreactivity
QVQLVESGGGLVQAGGSLRLSCAASGRTFSRYAMGWYRQAPGKERELVAAISKSSGTTSYADSVKGRFTISRDNAKNTVYLQMKSQKPEDTAVYYCAAGITGRYYGVRFSEDYWGQGTQVTVSS | high polyreactivity
QVQLVESGGGLVQAGGSLRLSCAASGFTFYKYVMGWYRQAPGKERELVAAITTSGGSTYFADSVKGRFTISRDNAKNSVYLEMNSLKPEDTAVYYCNARSLHTSEGDYWGQGSQVTVSS | low polyreactivity
QVQLVQSGGGLVQAGGSLRLSCADSGGTFRVYAMGSYRQAPGKERQLVASISWSSGITYYADSVKGRFTISRDNAKNTVYLQMNSLKPEDTAVYYCAAEGHVTYGAPGRLYRMGYWGQGTQVTVSS | low polyreactivity
QVKLQESGGGLVQAGGSLRLSCAASGNISVTGFMGWYRQAPGKERELVASIGIGGTTYYADSVKGRFSISRDNANNTLYLQMNSLKPEDTAVYYCAARYLYYAYSYWGQGTQVTVSS | low polyreactivity
QVQLVESGGGLVQAGGSLRLSCAASGFNFYRNTMGWYSQAPGKEREFVAAIRWRGGSTYYADSVKGRFTISRDNAKNTVYLQMNSLKPEDTAVYYCAADTRPGYSGFEYWGQGTQVTVSS | high polyreactivity
QDQLVESGGGLVQAGGSLRLTCAASGSTFGVYTMGWYRQAPGKERELVAAITKSGGSTYYADSVKGRFTISRDNAKNTVYLQMNSLKPEETAVYYCATDADRPPRTPDISYVSNFDYWGQGTQVTVSS | low polyreactivity
QVQLVESGGGLVQAGGSLRLSCAASGFIFRGNTMGWYRQAPGKERELVAAISASGGSTYYADSVKGRFTISRDNAKNTVYLQMNSLKPEDTAVYYCNVAVIYRSRTYWYGMDYWGQGTQLTVSS | high polyreactivity
QVQLVESGGGLVQAGGSLRLSCAASGFTFTSNAMGWYRQAPGKERELVAAISRSGGRTYYADSVKGRFTISRDNAKNTVYLQLNSLKPEDTAVYYCNVRAEKRSYELYAYDYWGQGTQVTVSS | high polyreactivity

Sequence | polyreactivity (PSR sort gate)
QVHLVESGGGLVQAGGSLRLSCAASGRIFSRNAMGRYRQAPGKERELVAAISSDGNTNYADSVKGFTISRDNAKNTVYLQMNSLKPESTAVYYCAARFGYTAYGYWGQGTQVTVSS | low polyreactivity
QVQLQESGGGLVQAGGSLCMSCAASGSISDYIFMCWYRQAPGKVREFVAGIGIGGKTNYADSVKGRFTIRRDNEKYTVYLQMNSLKPEDTALYYCAANATYTDYYAYCGQGTQVTVSS | low polyreactivity
QVQLVESGGGLVQAGGSLRLSCAASGRIFTWYAMGWYRQAPGKERELVAVISSGGSTYYADSVKGRFTISRDNAKNTVYLQMNSLKPEDTAVYYCAARRSYYGRSYYYWGQGTQVTVSS | high polyreactivity
QVQLVESGGGLVQAGGSLRLSCAASGNTFQSYAMGRYRQAPGKEREFVAAIRQSGGSTYYADSVKGRFTISRDTAKYTVYLQMNSLKPEATAVYYCAAYFTPRKYKPYDYWGLGTQVTVSS | high polyreactivity
QVQLLESGGRLVQAGGSLRLSCMASGSILGDRMSWYRQAPGKEHELVATIYDGGITYYADSMKGRFTISRDNAKNTVYLQMNSLRPEDTAVYYCGASFEGYRYHVYCGQGTQVTVSS | low polyreactivity
QVQLVESGGGLVQAGGSLRLSCAASGRIFVGYAMGWYRQAPGKERELVAGIRYSGGSTYYADSVKGRFTISRDNAKNTVYLQMNSLKPEDTAVYYCANQVWHYAGRPNYKYDYWGQGTQVTVSS | low polyreactivity
QVQLVESGGCLVQAGGSLRLSCAASGFTFGRYAMGWYRQAPGKEREFVAAISYTGTSTYYADSVKGRFTISRDNAKNTVYLQMNSLKPEDTAVYYCNAVHPGTVAYDSWGQGTQVTVSS | high polyreactivity
QVQLVESGGGLVQAGGSLRLSCAASGRIFGGYAMGWYRQAPGKERELVAAIRDSGRTYYADSVKGRFTISRDNEKNTVYLQMNRLKPEDTAVYYCAADAHSSYSPFRWYDYWGQGSQVTVSS | low polyreactivity
QVKLVESGGGLVQAGGSLRLSCAASGITFGYNAMGWDRQAPGKERELVAAITGGSTYYADSVKGRFTISRDNAKNTFYLQMNSLKPEDSAVYYCATDPRRFWVIYYYWGQGTQVTVSS | low polyreactivity
QVQLVESGGGLVQAGGRLRLSCAATGRTFWENAMGWYRQAPGKERELVAAISGDSGSTYYADSVKGRFTISRDNAKNTVYLQMNSLKPEDTAVYYCAADSDRDDSYPYYYWGQGTQVTVSS | low polyreactivity
QVQLVESGGGLVQAGGSLRLSCAASGSTFVNYAMGWYRQAPGKERELVAAISSTGGSTYYADSVKGRFTISRDNAKNTVYLQMNSLKPEDTAVYYCAAYRYFKMGYWGQGTQVTVSS | high polyreactivity
QVQLVESGGGLVQAGGSLRLSCAASGSIFIQYAMGWYRQAPGKERELVAAINSSGGRTYYADSVKGRFTISRDNAKNTVYLQMNRLKPEDTAVYYCAADHGSSFDWGQGTQVTVSS | low polyreactivity
QVQLVESGGGLVQAGGSLRLSCAASGFTFVRYAMGWYRQAPGKEREFVAAITWSGGGTYYADSVKGRFTISRDNAKNTVYLQMNSLKPEDTAVYYCAADRRAYGGGYWGQGTQVTVSS | high polyreactivity
QVQLVESGGGLVQAGGSLRLSCAASGFIFGYKARGWYRQAPGKERELVAAISSSGGSTYYADSVKGRFTISRDNAKNTVYLQMKSLKPEDTAVYYCAARPVALRKYYYWGQVTQVTVSS | low polyreactivity
QVQLVESGGGLVQAGGSLRLSCAASGSIFPFNAMGWYRPAPGKERELVAAITSGGSTNYADSVKGRFTISRDNAKNTVYLQMNSLKPEDTADYYCAADWRYWRWAFDYWGQGTQVTVSS | high polyreactivity
QVQLVESGGGLVQAGGSLRLSCAASGSIFGWYVMGWYRQAPGKERELVAAISSVGSTYYADSVKGRFTISRDNAKNTVYLQMNSLKPEDTAVYYCAADRVWGTPQAYVPSQFDYWGQGTQVTVSS | low polyreactivity
QVQLVESGGGLVQAGGSLRLSCAASGGIFYPYAMGWYRQAPGKERELVASIDVSDGSTYYADSVKGRFTISRDNAKNSVYLQMNSLKPEDTAVYYCAADRYSKAIDFEGDYWGQGTQVTVSS | low polyreactivity
QVQLVESGGGLVQAGGSLRLSCAASGFIFTRYAMGGYRHAPGKERELVAAISWSGGRTYYADSVKGRFTISRDNANNTVYLQMNSLKPEDTAVYYCAARWVRIRFDYWGQGTQVAVSS | high polyreactivity
QVQLVESGGGLVQAGGSLRLSCAASGFILRYYAMGWYRQAPGKERELVAAISSGGGTYYADSVKGRFTISRDNAKNTVYLQMNSLKPEDTAVYYCAAVYWGLWHWLYTDDDGDYWGQGTQVTVSS | high polyreactivity
QVQLVESGGGLLQAGGSLRLSCAASGNTFVKYTMGWYRQAPGKERELVAAITWSGGSTSYADSVKGRFTISRDNAKNTVYLQMNSLKPEDTAVYYCAAAWSHSRWDTHDYWGQGTQVTVSS | low polyreactivity
QVQLVESGGGLVQAGGSLRLSCAASGSIFPGYPMGWYRQAPGKERELVAAISRSGGITYYADSVKGRFTISRDNAKNTVYLQMNSLKPEDTAVYYCAKTLPSNGHYDYWGQGTQVTVSS | low polyreactivity
